Assays:
[1] = test system: Nterm (position 1, -----ECG---); assay: potentiometry; details: 25 °C; 0.1 M (4 mM HNO3 + 96 mM KNO3); none (4 mM HNO3 / 96 mM KNO3); metal-free peptide, reduced thiols, argon atmosphere, 0.5-1.5 mM ligand
[2] = test system: Glu1 (position 1, -----ECG---); assay: potentiometry; details: 25 °C; 0.1 M (4 mM HNO3 + 96 mM KNO3); none (4 mM HNO3 / 96 mM KNO3); metal-free peptide, reduced thiols, argon atmosphere, 0.5-1.5 mM ligand
[3] = test system: Cys2 (position 2, ----ECG----); assay: potentiometry; details: 25 °C; 0.1 M (4 mM HNO3 + 96 mM KNO3); none (4 mM HNO3 / 96 mM KNO3); metal-free peptide, reduced thiols, argon atmosphere, 0.5-1.5 mM ligand
[4] = test system: Cterm (position 3, ---ECG-----); assay: potentiometry; details: 25 °C; 0.1 M (4 mM HNO3 + 96 mM KNO3); none (4 mM HNO3 / 96 mM KNO3); metal-free peptide, reduced thiols, argon atmosphere, 0.5-1.5 mM ligand
[5] = target: Cys1; assay: potentiometry; details: 25 °C; 0.1 M (4 mM HNO3 + 96 mM KNO3); none (4 mM HNO3 / 96 mM KNO3); metal-free peptide, reduced thiols, argon atmosphere, 0.5-1.5 mM ligand
[6] = target: Cys2; assay: potentiometry; details: 25 °C; 0.1 M (4 mM HNO3 + 96 mM KNO3); none (4 mM HNO3 / 96 mM KNO3); metal-free peptide, reduced thiols, argon atmosphere, 0.5-1.5 mM ligand
[7] = target: Cterm5; assay: potentiometry; details: 25 °C; 0.1 M (4 mM HNO3 + 96 mM KNO3); none (4 mM HNO3 / 96 mM KNO3); metal-free peptide, reduced thiols, argon atmosphere, 0.5-1.5 mM ligand
[8] = target: Nterm1; assay: potentiometry; details: 25 °C; 0.1 M (4 mM HNO3 + 96 mM KNO3); none (4 mM HNO3 / 96 mM KNO3); metal-free peptide, reduced thiols, argon atmosphere, 0.5-1.5 mM ligand
[9] = target: Glu2; assay: potentiometry; details: 25 °C; 0.1 M (4 mM HNO3 + 96 mM KNO3); none (4 mM HNO3 / 96 mM KNO3); metal-free peptide, reduced thiols, argon atmosphere, 0.5-1.5 mM ligand
[10] = target: Glu1; assay: potentiometry; details: 25 °C; 0.1 M (4 mM HNO3 + 96 mM KNO3); none (4 mM HNO3 / 96 mM KNO3); metal-free peptide, reduced thiols, argon atmosphere, 0.5-1.5 mM ligand
[11] = target: Cys1; assay: NMR; details: metal-free PC2; cited from earlier work
[12] = target: Cys2; assay: NMR; details: metal-free PC2; cited from earlier work
[13] = target: Nterm1; assay: NMR; details: metal-free PC2; cited from earlier work

Row | Molecule | pKa [1] | pKa [2] | pKa [3] | pKa [4] | pKa [5] | pKa [6] | pKa [7] | pKa [8] | pKa [9] | pKa [10] | pKa [11] | pKa [12] | pKa [13]
1 | Glutathione (GSH, reduced) (not applicable (commercial reduced L-glutathione, Sigma-Aldrich)) | 9.65 | 1.95 | 8.76 | 3.64 | – | – | – | – | – | – | – | – | –
2 | ECECG | – | – | – | – | 9.69 | 8.59 | 4.30 | 10.25 | 3.17 | 2.43 | 9.53 | 9.40 | 10.01

Source: publication PMC8041291
